Assay results reported in paper PMC2788227 (PLoS ONE, 2009).

Key:
[1] = tested on: CC(=O)[C@@H](O)[C@H](O)COP(=O)(O)O; experiment: purified protein; conditions: pH 7.8; 22.0 °C
[2] = tested on: NC(=O)C1=CN([C@@H]2O[C@H](COP(=O)(O)OP(=O)(O)OC[C@H]3O[C@@H](n4cnc5c(N)ncnc54)[C@H](OP(=O)(O)O)[C@@H]3O)[C@@H](O)[C@H]2O)C=CC1; experiment: purified protein; conditions: pH 7.8; 22.0 °C; varied: cofactor

Substance: F. tularensis MEP synthase (IspC; 1-deoxy-D-xylulose 5-phosphate reductoisomerase) (Francisella tularensis subsp. holarctica LVS)
- Km [1]: 103.7 ± 12.1 µM
- Km [2]: 13.3 ± 1.5 µM
